Results taken from patent US20240293573A1 (SEOUL NATIONAL UNIVERSITY R AND DB FOUNDATION, published 2024).

Target: T1, Claudin3 (Homo sapiens (Human), UniProt O15551 1-220)
T1 construct: also called CLDN3
T1 sequence: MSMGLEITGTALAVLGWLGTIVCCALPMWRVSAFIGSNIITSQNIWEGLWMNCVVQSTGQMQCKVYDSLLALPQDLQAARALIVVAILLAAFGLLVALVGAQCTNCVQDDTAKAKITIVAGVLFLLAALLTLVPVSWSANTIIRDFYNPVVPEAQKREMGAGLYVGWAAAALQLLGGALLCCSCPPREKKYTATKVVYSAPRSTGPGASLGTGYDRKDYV
Assay: fluorescence of FITC-labeled h4G3cys on CLDN3/TOV-112D cells, one-to-one two-state model

- Kd: 5.24 nM
B1: cysteine-substituted anti-Claudin3 human monoclonal antibody h4G3cys (light chain Q125C) (antibody, human IgG1, kappa, V domains shown)
VH: EVQLLESGGGLVQPGGSLRLSCAASGFTFSSYAMSWVRQAPGKGLEWVSIINPSGASTSHAQRFQGRFTISRDNSKNTLYLQMNSLRAEDTAVYYCARYGRYGSFDIWGQGTLVTVSS
VL: QSVLTQPPSASGTPGQRVTISCSGSTSNIGRNYVSWYQQLPGTAPKLLIYDTSNKHFGVPDRFSGSKSGTSASLAISGLRSEDEADYYCQSYDSSKVVFGGGTKLTVLR
notes: also called modified anti-Claudin3 antibody; anti-Claudin3 antibody variant
